Experimental findings from publication PMC12412097, “Structure and Nitrite Reductase Activity of the Di-iron Protein ScdA in Staphylococcus aureus” (Journal of the American Chemical Society, 2025) are described below.

Data set [1] addresses C-terminal domain-only (CTD, residues 64-224) variant of ScdA (S. aureus) (UniProt P72360). Put plainly: SEC; Superdex 75 Increase 10/300 GL, 20 mM Tris, 150 mM NaCl, pH 7.6; no reducing agent (WT also with MV radicals); oligomer peak at 9.2 mL, dimer peak at 10.9 mL.
The test system of another data set is O=NO. Put plainly: purified protein. Particulars: pH 7.6, methyl viologen cation radical as electron donor, 1 μM enzyme.

One may read the stoichiometry N as a count of units in the complex or per binding partner. For orientation: Km means the substrate concentration at which the rate is half of its maximum.

Take “C-terminal domain-only (CTD, residues 64-224) variant of ScdA (from UniProt P72360 64-224) (domain or fragment)”: in data set [1], the stoichiometry N came out at 2.

Consider “ScdA (Staphylococcus aureus subsp. aureus NCTC 8325)”, for which, in the data set with O=NO (partly oligomeric), the Km came out at 681 µM and the kcat is 32.3 min^–1.

Consider “ScdA (Staphylococcus aureus subsp. aureus NCTC 8325; C191A/C30A/C31A)”, for which, in the data set on O=NO (predominantly dimeric), the Km stood at 822 µM and the kcat is reported as 94.3 min^–1.
